# Data as given in the Human Domainome abundance scans (Beltran et al. 2025).
# ± gives the uncertainty stated by the source.
# B1: Transcription factor SOX-11, residues 50 to 117; numbered along this chain, P35716 (parent)
# chain: KRPMNAFMVWSKIERRKIMEQSPDMHNAEISKRLGKRWKMLKDSEKIPFIREAERLRLKHMADYPDYK
# Variants of: B1
# Test: abundance fitness (aPCA) (normalised: wild type 0, dead -1); higher = more abundant; growth selection in yeast, the domain comes from the species named
# Details: Homo sapiens
row,Variant,abundance fitness
1,R37A,0.117 ± 0.054
2,R37H,-0.129 ± 0.07
3,H60F,-0.078 ± 0.058
4,H60S,-0.017 ± 0.05
5,H60N,0.058 ± 0.055
6,H60W,-0.607 ± 0.18
7,H60D,0.136 ± 0.062
8,V9A,-0.644 ± 0.12
9,V9M,-0.61 ± 0.17
10,V9T,-0.777 ± 0.12
11,V9Q,-0.894 ± 0.25
12,M40W,-0.503 ± 0.24
13,M40D,0.111 ± 0.061
14,M40F,-0.404 ± 0.065
15,M40N,-0.022 ± 0.059
16,L56M,0.079 ± 0.16
17,L56W,-0.888 ± 0.26
18,L56R,-0.532 ± 0.084
19,L56K,-0.664 ± 0.23
20,L56E,-0.212 ± 0.18
21,L56I,-0.176 ± 0.058
22,L56Y,-0.386 ± 0.078
23,K32P,-0.672 ± 0.16
24,K32F,-0.329 ± 0.063

row,Variant,abundance fitness
1,K32A,0 ± 0.068
2,K32I,-0.145 ± 0.056
3,R15G,-0.397 ± 0.065
4,R15S,-0.154 ± 0.057
5,R15L,-0.445 ± 0.092
6,R15D,-1.11 ± 0.21
7,R15N,-0.527 ± 0.1
8,R15M,-0.142 ± 0.2
9,M8Q,0.324 ± 0.083
10,M8V,-0.131 ± 0.062
11,M8K,-0.394 ± 0.16
12,M8T,0.165 ± 0.062
13,M8R,-0.239 ± 0.069
14,M8G,-0.079 ± 0.067
15,M8C,-0.168 ± 0.061
16,F7C,-0.534 ± 0.098
17,F7N,-0.795 ± 0.09
18,F7Q,-0.476 ± 0.21
19,F7E,-0.689 ± 0.32
20,F7T,-0.839 ± 0.12
21,F7K,-0.887 ± 0.21
22,I47H,-0.46 ± 0.053
23,I47V,-0.097 ± 0.041
24,I47E,0.259 ± 0.067

row,Variant,abundance fitness
1,I47F,-0.23 ± 0.045
2,I47P,-1.04 ± 0.13
3,I47T,-0.051 ± 0.057
4,R2L,0.037 ± 0.063
5,R2A,-0.178 ± 0.079
6,R2M,0.158 ± 0.096
7,K1T,0.032 ± 0.082
8,K1G,0.103 ± 0.058
9,K1M,-0.421 ± 0.2
10,K1S,-0.026 ± 0.067
11,K1N,0.077 ± 0.06
12,K1W,0.006 ± 0.2
13,K1E,0.258 ± 0.17
14,K1F,0.113 ± 0.076
15,S44T,-0.215 ± 0.082
16,S44C,-0.089 ± 0.078
17,S44Q,0.585 ± 0.18
18,S44Y,-0.024 ± 0.072
19,S44D,0.169 ± 0.066
20,S44G,-0.208 ± 0.078
21,I13G,-0.206 ± 0.059
22,I13T,-0.164 ± 0.064
23,I13S,-0.406 ± 0.056
24,I13K,-0.717 ± 0.23

row,Variant,abundance fitness
1,I13P,-0.646 ± 0.11
2,I13M,-0.106 ± 0.098
3,I13Q,-0.06 ± 0.14
4,K39Y,-0.683 ± 0.071
5,K39V,-0.395 ± 0.062
6,K39E,-0.075 ± 0.17
7,K39L,-0.274 ± 0.078
8,K39Q,0.05 ± 0.14
9,K39C,-0.452 ± 0.071
10,K39S,-0.148 ± 0.049
11,P65S,0.269 ± 0.36
12,P65Y,-0.41 ± 0.37
13,P65V,-0.013 ± 0.47
14,I30P,-0.708 ± 0.13
15,I30Q,-0.797 ± 0.23
16,I30C,-0.304 ± 0.053
17,I30S,-0.682 ± 0.071
18,E45M,-0.314 ± 0.12
19,E45R,-0.891 ± 0.13
20,E45S,-0.828 ± 0.091
21,E45H,-0.45 ± 0.077
22,E45V,-0.425 ± 0.071
23,E45Q,-0.282 ± 0.13
24,E20P,-0.812 ± 0.16

row,Variant,abundance fitness
1,E20Q,-0.83 ± 0.34
2,E20L,-0.27 ± 0.079
3,E20A,-0.348 ± 0.11
4,E20W,-0.577 ± 0.17
5,P3D,0.525 ± 0.076
6,P3K,-0.044 ± 0.18
7,P3M,-0.704 ± 0.45
8,P3E,0.073 ± 0.18
9,K42R,-0.278 ± 0.064
10,K42M,-0.161 ± 0.11
11,K42F,-0.673 ± 0.065
12,A6V,-0.629 ± 0.082
13,A6T,-0.767 ± 0.11
14,A6M,-0.831 ± 0.24
15,A6W,-1.29 ± 0.34
16,A6Q,-1.05 ± 0.33
17,A6Y,-0.827 ± 0.096
18,I18G,-0.772 ± 0.075
19,I18E,-0.355 ± 0.17
20,I18H,-0.918 ± 0.17
21,I18R,-0.945 ± 0.12
22,I18W,-0.256 ± 0.11
23,N27Y,-0.213 ± 0.063
24,N27V,-0.178 ± 0.055

row,Variant,abundance fitness
1,N27T,-0.033 ± 0.07
2,N27L,-0.279 ± 0.062
3,N27E,0.333 ± 0.11
4,N27Q,0.205 ± 0.11
5,N27P,0.4 ± 0.065
6,N27W,0.105 ± 0.1
7,L41P,-1.14 ± 0.21
8,L41Q,-0.721 ± 0.31
9,L41I,-0.652 ± 0.078
10,L41E,-1.04 ± 0.35
11,W10H,-0.783 ± 0.11
12,W10T,-0.576 ± 0.097
13,W10D,-0.781 ± 0.14
14,W10Y,-0.375 ± 0.065
15,K46H,-0.718 ± 0.08
16,K46E,-0.74 ± 0.37
17,K46A,-0.871 ± 0.12
18,K46T,-0.619 ± 0.089
19,L34W,-0.909 ± 0.14
20,L34D,-0.685 ± 0.1
21,L34R,-0.763 ± 0.1
22,L34M,-0.547 ± 0.16
23,H26Y,-0.368 ± 0.059
24,H26W,-0.388 ± 0.2

row,Variant,abundance fitness
1,H26N,0.277 ± 0.052
2,H26V,-0.283 ± 0.057
3,H26C,0.226 ± 0.047
4,H26S,0.406 ± 0.041
5,S22R,-0.513 ± 0.091
6,S22A,-0.061 ± 0.066
7,S22K,-0.352 ± 0.19
8,S22P,-0.841 ± 0.16
9,E14T,-1.16 ± 0.2
10,E14D,-0.861 ± 0.12
11,E14Q,-0.247 ± 0.19
12,E14K,-0.953 ± 0.41
13,E14V,-0.895 ± 0.084
14,E14I,-0.722 ± 0.11
15,L58W,-0.222 ± 0.16
16,L58I,-0.087 ± 0.054
17,M25Y,-0.793 ± 0.1
18,M25P,-0.892 ± 0.21
19,M25Q,-0.782 ± 0.21
20,M25W,-0.715 ± 0.12
21,M25S,-0.53 ± 0.057
22,M25A,-0.141 ± 0.072
23,M25V,-0.278 ± 0.065
